Data on four molecules can be found in PMC3440374, “High Inorganic Triphosphatase Activities in Bacteria and Mammalian Cells: Identification of the Enzymes Involved” (PLoS ONE, 2012).

Data set [1] deals with T1, CyaB (Aeromonas hydrophila, UniProt O69199).
T1 construct: full length from first Met, cloned in PVP16 as 8HIS-MBP fusion, tag removed by TEV digestion; produced in E. coli BL21DE3; nickel column
T1 sequence (O69199 1-191): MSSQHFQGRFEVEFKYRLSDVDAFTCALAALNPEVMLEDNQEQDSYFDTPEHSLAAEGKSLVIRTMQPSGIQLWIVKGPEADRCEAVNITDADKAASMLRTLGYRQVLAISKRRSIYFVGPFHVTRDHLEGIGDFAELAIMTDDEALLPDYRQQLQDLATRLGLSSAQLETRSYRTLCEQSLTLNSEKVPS
Nature of the data set: inorganic phosphate release, colorimetric. The class given is biochemical. The conditions noted are these: 0.5 mM substrate, 5 mM Mg2+ or Mn2+, pH 9.1, 50°C.

Substrate in data set [2]: O=P(O)(O)OP(=O)(O)OP(=O)(O)O
Nature of the data set: inorganic phosphate release, colorimetric, Michaelis-Menten fit. The class given is biochemical, Escherichia coli. The conditions noted are these: 5 mM Mg2+, pH 8.5, 50°C.

Substrate in data set [3]: O=P(O)(O)OP(=O)(O)OP(=O)(O)O
Nature of the data set: inorganic phosphate release, colorimetric. Type of data set: biochemical, Escherichia coli. To be noted: 10 mM Mg2+, 50 mM CHES pH 9.1, 25°C.

As to `O=P(O)(O)OP(=O)(O)OP(=O)(O)O` [PPPi], the “inorganic phosphate release, colorimetric” value in data set [1] was “it indeed hydrolyzes substrates such as ATP, ThTP and PPPi but at a low rate”.

On to `Cc1ncc(C[n+]2csc(CCOP(=O)(O)OP(=O)(O)OP(=O)(O)O)c2C)c(N)n1` [ThTP], for which, in data set [1], the “inorganic phosphate release, colorimetric” value was “it indeed hydrolyzes substrates such as ATP, ThTP and PPPi but at a low rate”.

B1: GST-ygiF (Escherichia coli K-12) (protein)
chain: MAQEIELKFIVNHSAVEALRDHLNTLGGEHHDPVQLLNIYYETPDNWLRGHDMGLRIRGENGRYEMTMKVAGRVTGGLHQRPEYNVALSEPTLDLAQLPTEVWPNGELPADLASRVQPLFSTDFYREKWLVAVDGSQIEIALDQGEVKAGEFAEPICELELELLSGDTRAVLKLANQLVSQTGLRQGSLSKAARGYHLAQGNPAREIKPTTILHVAAKADVEQGLEAALELALAQWQYHEELWVRGNDAAKEQVLAAISLVRHTLMLFGGIVPRKASTHLRDLLTQCEATIASAVSAVTAVYSTETAMAKLALTEWLVSKAWQPFLDAKAQGKISDSFKRFADIHLSRHAAELKSVFCQPLGDRYRDQLPRLTRDIDSILLLAGYYDPVVAQAWLENWQGLHHAIATGQRIEIEHFRNEANNQEPFWLHSGKR
notes: produced in E. coli DH5alpha, GSTrap purified
For B1, in data set [2], the Km was found to be 270 ± 25 µM.

B2: EcPPase (Escherichia coli K-12) (protein)
chain: SLLNVPAGKDLPEDIYVVIEIPANADPIKYEIDKESGALFVDRFMSTAMFYPCNYGYINHTLSLDGDPVDVLVPTPYPLQPGSVIRCRPVGVLKMTDEAGEDAKLVAVPHSKLSKEYDHIKDVNDLPELLKAQIAHFFEHYKDLEKGKWVKVEGWENAEAAKAEIVASFERAKNK
notes: commercial purified recombinant preparation (Sigma-Aldrich); 20 kDa per subunit
For B2, in data set [3], the Michaelis constant (Km) is 910 ± 90 µM and the kcat was found to be 16.7 s⁻¹.
